The source of these data is the RNAGym collection of RNA variant scans (doi:10.1021/acssynbio.7b00057).

B1: Pistol ribozyme (parent)
chain: GGGUCGUUGUUCCAUAAUCGCGUGGAUAUGGCACGCAAGUUUCUACCGGGCACCGUAAAUGUCCGACUGGAGCCGUUCGGGCGGCUAUAAACAGACCUCAGGCCCGAAGCGUGGCGGCACCUGCCGCCGGUGGUAAAAAAGAUCGGAAGAGCACACGUCU

Variants of B1 are the subject of this data set. Put plainly: aptazyme ON/OFF ratio, guanine; higher = stronger switching; co-transcriptional cleavage with and without guanine.
Take U7G U8G G9C U10A U11C C12G C13U: the “aptazyme ON/OFF ratio” value is 1.06.
On to U7G U8G G9C U10A U11C C12G C13A, for which the “aptazyme ON/OFF ratio” value stood at 1.06.
For the variant U7G U8G G9C U10A U11C C12G C13G, the “aptazyme ON/OFF ratio” value amounted to 1.05.
With U7G U8G G9C U10G U11A C12U C13G, the “aptazyme ON/OFF ratio” value was 1.1.
For U7G U8G G9C U10G U11A C12U C13A, the “aptazyme ON/OFF ratio” value turned out to be 1.13.
U7G U8G G9C U10G U11A C12U C13U: the “aptazyme ON/OFF ratio” value was found to be 1.1.
Turning to U7G U8G G9U U10A U11G C12U C13A, the “aptazyme ON/OFF ratio” value is 1.1.
As for U7G U8G G9C U10G U11A C12A C13A, the “aptazyme ON/OFF ratio” value was determined as 1.14.
On to U7G U8G G9C U10G U11A C12A C13G, for which the “aptazyme ON/OFF ratio” value stood at 1.12.
To U7G U8G G9C U10G U11A C12A C13U belongs 1.11.
Take U7G U8G G9U C12A C13U: the “aptazyme ON/OFF ratio” value was 1.06.
As for U7G U8G G9U C12A C13G, the “aptazyme ON/OFF ratio” value was found to be 1.1.
To U7G U8G G9U C12A C13A belongs 1.17; to U7G U8G G9U U10A C12U, 1.29.
U7G U8G G9U U10A C12G: the “aptazyme ON/OFF ratio” value was 1.21.
Consider U7G U8G G9U U10A C12A, for which the “aptazyme ON/OFF ratio” value was 1.28.
With U7G U8G G9C U11G C13A, the “aptazyme ON/OFF ratio” value is 1.3.
U7G U8G G9C U11G C13G: the “aptazyme ON/OFF ratio” value is 1.16.
U7G U8G G9C U11G C13U: the “aptazyme ON/OFF ratio” value stood at 1.49.
To U7G U8G G9C U10G C12A C13G belongs 1.06; to U7G U8G G9C U10G C12A C13A, 1.07; to U7G U8G G9C U10G C12A C13U, 1.14.
U7G U8G G9C U10A C12G C13G: the “aptazyme ON/OFF ratio” value was 1.04.
With U7G U8G G9C U10A C12G C13A the figure was 1.05.
For U7G U8G G9C U10A C12G C13U, the “aptazyme ON/OFF ratio” value worked out at 1.04.
On to U7G U8G G9C U10G U11A C12G C13A, for which the “aptazyme ON/OFF ratio” value amounted to 1.06.
Turning to U7G U8G G9C U10G U11A C12G C13G, the “aptazyme ON/OFF ratio” value is 1.12.
As for U7G U8G G9C U10G U11A C12G C13U, the “aptazyme ON/OFF ratio” value is 1.16.
U7G U8G G9C U10C U11G C12U C13G: the “aptazyme ON/OFF ratio” value stood at 1.22.
In the case of U7G U8G G9C U10C U11G C12U C13U, the “aptazyme ON/OFF ratio” value came out at 1.22.
With U7G U8G G9C U10C U11G C12U C13A the figure was 1.25; with U7G U8G G9C U10G C13G, 1.28.
As to U7G U8G G9C U10G C13A, the “aptazyme ON/OFF ratio” value worked out at 1.31.
For the variant U7G U8G G9C U10G C13U, the “aptazyme ON/OFF ratio” value came out at 1.26.
With U7G U8G G9U U10A U11A C12A C13A, the “aptazyme ON/OFF ratio” value turned out to be 1.02.
With U7G U8G G9U U10A U11A C12A C13U the figure was 1.29; with U7G U8G G9U U10A U11A C12A C13G, 1.13.
On to U7G U8G G9C U10C U11C C13A, for which the “aptazyme ON/OFF ratio” value was 1.09.
As to U7G U8G G9C U10C U11C C13U, the “aptazyme ON/OFF ratio” value came to 1.07.
As for U7G U8G G9C U10C U11C C13G, the “aptazyme ON/OFF ratio” value was determined as 1.04.
As to U7G U8G G9C U10G C12G C13G, the “aptazyme ON/OFF ratio” value stood at 1.12.
As for U7G U8G G9C U10G C12G C13U, the “aptazyme ON/OFF ratio” value amounted to 1.2.
Turning to U7G U8G G9C U10G C12G C13A, the “aptazyme ON/OFF ratio” value is 1.11.
With U7G U8G G9C U10C U11C C12U C13U the figure was 1.06; with U7G U8G G9C U10C U11C C12U C13A, 1.08.
As to U7G U8G G9C U10C U11C C12U C13G, the “aptazyme ON/OFF ratio” value was determined as 1.23.
For U7G U8G G9C U11A C12U C13U, the “aptazyme ON/OFF ratio” value is 1.26.
For the variant U7G U8G G9C U11A C12U C13A, the “aptazyme ON/OFF ratio” value came out at 1.13.
For U7G U8G G9C U11A C12U C13G, the “aptazyme ON/OFF ratio” value worked out at 1.15.
Turning to U7G U8G G9C U10A U11A C12U C13U, the “aptazyme ON/OFF ratio” value amounted to 1.02.
Regarding U7G U8G G9C U10A U11A C12U C13G, the “aptazyme ON/OFF ratio” value was found to be 1.03.
Take U7G U8G G9C U10A U11A C12U C13A: the “aptazyme ON/OFF ratio” value was 1.08.
With U7G U8G G9C U10C U11C C12A C13U, the “aptazyme ON/OFF ratio” value was 1.1.
To U7G U8G G9C U10C U11C C12A C13G belongs 1.14.
With U7G U8G G9C U10C U11C C12A C13A, the “aptazyme ON/OFF ratio” value came out at 1.05.
As for U7G U8G G9C U10C U11G C12A C13G, the “aptazyme ON/OFF ratio” value came out at 1.31.
U7G U8G G9C U10C U11G C12A C13U: the “aptazyme ON/OFF ratio” value was 1.3.
To U7G U8G G9C U10C U11G C12A C13A belongs 1.17.
Turning to U7G U8G G9C U10G U11A C13U, the “aptazyme ON/OFF ratio” value was determined as 1.12.
For U7G U8G G9C U10G U11A C13A, the “aptazyme ON/OFF ratio” value worked out at 1.1.
With U7G U8G G9C U10G U11A C13G the figure was 1.05; with U7G U8G G9U U10A U11C, 1.09.
Regarding U7G U8G G9U U10A U11G, the “aptazyme ON/OFF ratio” value was found to be 1.27.
With U7G U8G G9U U10A U11A the figure was 2.87.
In the case of U7G U8G G9C U10A U11A, the “aptazyme ON/OFF ratio” value is 1.67.
Take U7G U8G G9C U10A U11G: the “aptazyme ON/OFF ratio” value was found to be 1.11.
As to U7G U8G G9C U10A U11C, the “aptazyme ON/OFF ratio” value amounted to 1.04.
For U7G U8G G9U C12G, the “aptazyme ON/OFF ratio” value is 1.18.
With U7G U8G G9U C12U, the “aptazyme ON/OFF ratio” value came out at 1.66.
As to U7G U8G G9U C12A, the “aptazyme ON/OFF ratio” value amounted to 1.56.
On to U7G U8G G9U U10A C12A C13G, for which the “aptazyme ON/OFF ratio” value was 1.14.
U7G U8G G9U U10A C12A C13U: the “aptazyme ON/OFF ratio” value was determined as 1.15.
To U7G U8G G9U U10A C12A C13A belongs 1.21; to U7G U8G G9C U11G C12U C13A, 1.3.
With U7G U8G G9C U11G C12U C13G the figure was 1.05; with U7G U8G G9C U11G C12U C13U, 1.26.
As to U7G U8G G9U, the “aptazyme ON/OFF ratio” value stood at 1.51.
Turning to U7G U8G G9C, the “aptazyme ON/OFF ratio” value was found to be 4.59.
Turning to U7G U8G G9C U10G C12G, the “aptazyme ON/OFF ratio” value came out at 1.21.
Consider U7G U8G G9C U10G C12U, for which the “aptazyme ON/OFF ratio” value was found to be 1.17.
With U7G U8G G9C U10G C12A, the “aptazyme ON/OFF ratio” value was determined as 1.14.
Regarding U7G U8G G9U U10A C12G C13G, the “aptazyme ON/OFF ratio” value was determined as 1.09.
For U7G U8G G9U U10A C12G C13U, the “aptazyme ON/OFF ratio” value worked out at 1.13.
To U7G U8G G9U U10A C12G C13A belongs 1.07.
